The source of these data is patent US20160377619A1 (published 2016).

The assay deals with lysyl-tRNA synthetase (KRS), recombinant (human, UniProt Q15046 1-597). The experiment in a line: SPR.
Sequence of lysyl-tRNA synthetase (KRS), recombinant (Q15046 whole entry): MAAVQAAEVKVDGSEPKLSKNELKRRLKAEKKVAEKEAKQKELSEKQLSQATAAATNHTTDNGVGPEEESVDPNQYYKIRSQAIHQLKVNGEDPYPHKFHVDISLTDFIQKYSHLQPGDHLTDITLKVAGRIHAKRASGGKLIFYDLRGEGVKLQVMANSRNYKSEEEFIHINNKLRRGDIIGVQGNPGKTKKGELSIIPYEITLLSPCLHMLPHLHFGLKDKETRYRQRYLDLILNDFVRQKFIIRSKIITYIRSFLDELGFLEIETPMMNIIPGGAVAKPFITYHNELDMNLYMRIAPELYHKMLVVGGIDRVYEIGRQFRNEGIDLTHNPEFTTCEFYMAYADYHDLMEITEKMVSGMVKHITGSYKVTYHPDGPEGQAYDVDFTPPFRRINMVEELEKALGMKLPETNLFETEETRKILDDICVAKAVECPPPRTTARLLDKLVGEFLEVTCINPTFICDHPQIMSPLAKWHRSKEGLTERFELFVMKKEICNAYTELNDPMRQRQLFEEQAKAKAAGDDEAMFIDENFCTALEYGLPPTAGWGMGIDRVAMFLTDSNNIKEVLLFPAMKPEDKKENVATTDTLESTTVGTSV

B1: anti-KRS scFv Biocon-K1 (scFv)
scFv: EVQLLESGGGLVQPGGSLRLSCAASGFTFSNYAMSWVRQAPGKGLEWVSGISPSSGDTYYADSVKGRFTISRDNSKNTLYLQMNSLRAEDTAVYYCAKGVWWYHPLLFDYWGQGTLVTVSSGGGGSGGGGSGGGGSQSVLTQPPSASGTPGQRVTISCSGSSSNIGNNTVSWYQQLPGTAPKLLIYANSKRPSGVPDRFSGSKSGTSASLAISGLRSEDEADYYCGAWDSSLSGYVFGGGTKLTVL
For B1, the Kd – broadly, the concentration at which binding is half-saturated – was 110 nM.
